Reference: the DeepSol protein solubility set

Assay: soluble on expression in E. coli; label from the status in PepcDB or PDB records

Soluble on expression in E. coli, not soluble:
MGSDKIHHHHHHMRSKGVMIPRIMSTQHPDNYSIPFFASSPILGGEDEITEAFYAFSVLGADEQMWDFEGKEVDEFVVKKLLERYPTFFKENILGEDLRLTPRVPNPSVEKAEAKLLLETLQGITRAADYARVFYLDNIAPIFEVILPMTTSLAEMLRVHELYRKIVSLSGEVIYDVTVKEWIGEFYPKEINVIPLFETKVALLKSGRIIREYIGRKRPEYLRVFFARSDPAMNYGLLSAVTYVKKALEQVGEVEEETSTPIYPIIGVGSPPFRGGMRPENVKKVLKEYPSVQTYTIQSSFKYDHPTKDVVKAVEIVKSKKREAPDPLDIPEFIQLYEIEYQKQLKILAPYIRNIVTRIPDRRKRKLHIGLFGYSRNVGGLSLPRVIKFTASLYSIGLPPELLGLNELSDNQLDSISEYYKNLYDDLEFAMRFFSFKVAERVGLRELSEKVKEFKPDIDDEYVREAELVFRGQGDVMKLAQIRGFLG
MAHHHHHHMSGEVDFWSATIAAYQPLQLTSPELTPKLLKRPPFRFIHDIVCSIDARFAAYDHIIPAELRDSAQVDTKEKKIEYLTTLIQYINRIMKVEIDVNPKKIVSGNEPEKTNIFLQYLAAGVGYAQQDKAAQATPAPQQKSAASLASPASPAAASFSTNPAQDNLSLSLASGLCRKKSSSRDPAERRRSHVSVFDEAAKFNRKLSGYSLNLNLDEQRDVRSEGQSIVRMWNELANPQTETKPSHMPQEALETAIKRQIETVKMVQELLSENDRVIDKLEALVI
MGFPKEGEKVQIHSYKHNGSIHRMWEETTILKGTQSLVIGANDRTVVTESDGRTWITREPAICYFHANYWFNVIGMLREDGVYYYCNLSSPFAYDPEALKYIDYDLDIKVYPDMTYTLLDEDEYEKHSEIMQYPPVIDTILKRNVAHLTQWIHQRKGPFAPDFVDMWYERYLMYRN
MGVELSLDPPVCPIQANGGVSTHKIINHCDKMLAYKIKSSNNSNYSVNTIFGLIQIGYTADLIITRKPGKPQADKLVIQFAAVEQTCRDGCICQGCICQWTANWRVLWRDDHQAVSC
GPGSMYFTSAKDVVRLCGGGLAPEVTFAIDDYPATDSIGYNSSAVAGGGGTNVDGASMSNVTTAIQRSLRRASRTAGQPTLRPTRTEQVCGPAVLGAGEALGLAPFKYVCYTVSTTSVVAPASGSASAASKGAKGDGGATYVEFVDAFRIRTSDVHAAVIDIAAQQRAERLQHSPNLYVPWCAAAPGEVVPRGAARTVADFIVAARHRTLYSDYAATELLVRQSWLLQDAAAHTIRALMPHMVPRTYMPGEVMACPHTPGSLRQLCFLRRGRLNVFVVPKSGITPVLLMKGESPDVLVTSRFSRDGCGCWCLRETPTAQPAEVVESGASFGELSVLFHEPRHCILRADTVCDVWCLPRQNFAALMQRDAALRDGLLRKAAVLRVEWMGEQRFTRALAQQLRAGSELLKPLPDIAIRLIQERLEPVIYTPGSLVASTSTRCTEMTFIMRGTVSTIWKVLLHTAQGTCWARDA
MVKRREAFEIEGKRVIAGSQMGIKLPAAKLYTDTQLDIHVEVFHGVKPGPTLLVCAAIHGDELNGIEICRRLLGRVNPKNLAGTLIVVPIVNVFGFIQQSRYLPDRRDLNRCFPGSSKGALASRLANLFATQLLVHATHVIDLHTGAIHRDNLPQIRCDTNDETMLAMANAFGAPLIMHSKARSVSMRGYANQQGIPCILYEAGEALRFSELAIKSGLKGVLNVMRSLGMLKGRVSNKIASVSAIRSYWIRSESDGLVNMKLKLGQRVNKGYIIAHIVSPHGGDSVAIRAPTDGIIIGISNIPVTNEGEGMFHIAQFEGDEIEIANEQLDEFLMEYA
MESLGSIALFVLVTETRSFTLAGKRLGISSSGVGKSVGRLEESLGVRLFHRSTRSIALTLEGSIFLDRCRRILSELDAAQLELSNARDLPKGRLRISVPLVFGLVMPVVIQFMRTYPEIELDIDFSDRMVDIIDEGFDVVLRTGEPSDSRLMSKRMGSFQLCIVGSPDYFARHGLPEQPADLIHHACLQHKFPSTGKFEHWPLRREPGSEDFELPQTMVCNTTEVLVEVARAGLGITCLPDFMLASAIRKGELIPILSDYTLHTGSFRLFWASSKHLSVRLRVFIDFMHANLFAPARVGQEGRS
MSLKLVKPKKFLGQHFLKDLKVAQDIADTVDTFPELPVLEVGPGMGVLTQFLVKKDRLVKVVEVDYESVAYLREAYPSLEDHIIEDDFLKMNLHRLFDGKPFVLTGNYPYNISSQIFFKMLENKDIIPCCTGMIQKEVAERIAAGPGSKTYGILSVLIQAWYKVEYLFTVSEHVFNPPPKVKSAVIRMTRNDTKEGHHHHHH
MGIFSRFADIVNSNVTSLLDKAENPEKMIRLIIQEMEDTLVEVRTASAKALADKKELTRKISSIEAQVADWQDKASLALLKQREDLARSALIEKQKVQDILSSLKTEFILVEESIEKLSAELIELETKLTETRARQQALVIRQQTAQHRNDIKSHTHSGKTERAMAKFEQYERRIDELDAKADSYSIGKANSLEQEFAELQAQDEIDKEIERLKEQMKKDALEHHHHHH
MSEVTDLTVIEIKPEQAPVLYVAGGLDAYLEQIRQAVNEVPDLSTKKGRDRVASLAAQVSRSKTAIEKPGREYLKRLKEAVRPAEAEIKRFVDACDELRDATRRPLTEWEAEQERIKAEEAMNALHAEALEMNIKFDQELAAKFEADHEMALLMNKDFDRDREEQRRLAEQARREHEERIKREAAEQARRDAEAKHKAEIEAAARREAEEKARAELAERQRIEAEQRAEREKKETEERARREKEEAVAAERRRQEEAEAARLVEEQRKAEEEARRAADKEHRRTVNRRVYADLIAQGIPEEYAQKAVLAIAGGKVQDAHIKY
MVGNTFGRIFRVTTCGESYAGAFRKNLQIPKELFGGLIAIVDGVPPGIKLTADFVQEELDKRRPGKTPLDTPRKERDKVYIFSGVMEDDITTGAPVGMIIPNDVIEDEHINKHKSYKEVVRPGQAGYTFFKKYGQFADNIGAGRASGRETAARVAAGAVAKAVLDTMGIDVIAFVTEIHGIKAQENITYEMAKANYRKNEINCPDLEKAKEMIEELKRIKEEGDSVGGVVEIIARGVPAGLGEPVFDKLQATLAHALMSIGAIKGIEFGEGFGHTKLKGSESNDVPYYDEASGRVRFKTNRAGGILGGISNGEDIRIRVAVKPTPTISIPQKTVNMYTLENVEVEFNTRNDPSICPRIYPVCEAMVRIALLDALYIAKGYRAISSNIDPRWDRL
MGSDKIHHHHHHMDGINTLRYSDLFLAMYFDGGKSCLHRNHSHVLVYVYSGEMVIDEKGQITRLHKGECAFIRKDFSVQMTKQAWNGEQFKAIFLMFTMKFLRDFYSKLDRNTLPKDAKRDQVSLYKLPSNRPDIVSLFESMTPYFNSKIQPTDELLQLKMVEGVYVLLNTDKNLYASIFDFTDPWKIDILEFMERNYMNDISMEEIANYTGRSLSTFKRDFKKCSALSPREWLIRRRLEAAHGLIRKGGRKVSEICFEVGFKNLSHFSKIYKIAYGVPPTEDI
MRAGVREVIDDSSERTLQQVIERAFLRTKGAIIRQKRVFGFVSAKGGDGGSCIAANFAFALSQEPDIHVLAVDISLPFGDLDMYLSGNTHSQDLADISNASDRLDKSLLDTMVQHISPSLDLIPSPATFEKIVNIEPERVSDLIHIAASFYDYIIVDFGASIDHVGVWVLEHLDELCIVTTPSLQSLRRAGQLLKLCKEFEKPISRIEIILNRADTNSRITSDEIEKVIGRPISKRIPQDEDAMQESLLSGQSVLKVAPKSQLSKTIVDWALHLNGVSRPNKRSIWERLKIK
AHHHHHHGSPKKERKVEGEEVIRVPLPEGNQLFGVVEQALGAGWMDVRCEDGKVRRCRIPGRLRRRVWIKVGDLVIVEPWPVQSDKRGDIVYRYTQTQVEWLLRKGKISQEFLTGGSLLLE
MGSDKIHHHHHHMRHTAVLLISCPDQRGLVAAIADFLLAHRANILHADQHQDAELKLFLMRVEWDLAGFNLDLRDFATAFQPIAERFGMTWRLAESSRKPRMAVFVSKFDHCLADLLYRYQSGELHCELPIILSNHEDTRWLADAYRVPYQHMAVTKESKHETEQIQLAILRDQKIDFIVLARYMQVLSGDFIRHFPNRIINIHHSFLPAFHGAKPYHRAFERGVKLIGATAHYVTETLDDGPIIEQDVARISHRDHIDDLIHKGADLEKVVLSRAVKWHLDNRVLVYANKTVVFD
PGSIWAKAIEHANEERKKPGADGRGDAFCYFVGSRAAGKSTLLNRFLYPTRAEVPKPSEGIEYTYARKPAAFDHEKKDLAHIWEVGGSQEFAEEIVNSDQLFLTAKQVTTAVVVIVVDLSDPAGVLPTLLYWVEQVKKKLGSTYEKFEKKGLQLPEQLRQRAKSKLYSANEDKDTVYHSGISLVIAATKYDAFKNQDPEVKKVMSRVLRYIAHAHGAFLCYLSGLHGASEGSGAEDAALLDNFTRLMNHLIFTGLEKKPVLKMQPQIDHTGPIMVPAGFDTFKSVGRPRSQGEGTVAGGLAEWRELFEKMFPGVREKEAKMSAKGAKFVIPEQYKEEEVDAVRQRKVTDLENFRKEQAAAVEAAKKKALMAKAQQAEAAAKK
MGSDKIHHHHHHMTITESRNAAVAEIEEVIGDWAEALRRKDAARVLAHGTEDCLVFSLAPPLKASDADAGGLEQWFSTWKGPLGFTLEELDVSVSGDVAFATALTHLSGEKHDGQKAALWYRLTLGLTRTDRGWKIAHQHESVPFYMDGSFKAAIDLDPRSEVDWQAPSRPPMPGVIAYLNVEDADAAAAFYVRAFGAKEEDRKHAQDGKRLIHCHLTINGGALMLNDPFPEFGHPWKPPEGFVLHLVVDDADFWWNRAVEAGAEVTMPLEIAFWGDHYGQLRDPFGVTWGIVAPVKEGG
MGSDKIHHHHHHMSKLSNLITQYCPEGVEYKTLGECGKFYGGLTGKSKKDFEDGNSKFITYKNVYSNPALCLDVEDKVRIEPGERQRTLEYGDIVFTGSSETPDECGISSVVAEIPEENLYLNSFCFIFRFDDPSILLPDFAKHLFRSSELRYQIGKTASGVTRYNVSKKLMGKVSFPVPPLEVQREIVRVLDSFTLLTAELTAELTARKQQYEFYRDYLLNGNSDYDICNLGDVCDVVAGGTPSRKVSDYWEDGCIPWLGSTVCKNKKNVDEPTEFITELGLEKSSAKMMKKDTTLIALVGATIGKVAFTTFDVAINQNIAGVYPKDTSKINPSYIYYACTTLYPHFLNLTQGSKLAMANLTFVRGLKISVPPIDVQNHLVNVLDNFESITSDLSIGLPAEIEARKKQYEYYRDALLTYASTGKIIARQTEHN

Soluble on expression in E. coli, soluble:
MVLPKDVKWDLIRQFQRHEQDTGSPEVQIAILTERINRLTEHMKKHKKDIHSRRGLIAMVNKRRKLLEYLRETDYAKYLEVVQKLNLKVK
MVDNTSLSFEQIADFCGLHPLEVRGIADGEVARDIRGADPIGNGQLNREELDRAQANPDYRMKALVSRHAELLKPAKKAPRYTPVSRRQDRPDAIAWFLRHHPEVTDAQISKILGTTKATIEQVRARTHWNAANIKPVDPVTLGLVGQLELDALVKKAAEKKAKDDLKKGIVPEDPTLRPASEAGQFEPEVEEEEEDFRAPRGDLKAEDVFGKSTGYVDEEDEDLEHHHHHH
MDGSMGEGGGQILRTAVALAAVLGRPLRIVNIRAKRRPPGLRPQHLTAVRAVAAISGGRLRGAEVGSTSLEFTPGRVRGGRYRFDVGTAGSVALIIQALAPLLAYSDSPVEVELTGGTDVPMAPTIDYMREVFASILAMLGYEIEIRVLRRGHYPRGGGRVVVRVPDPPGGFRARSFVERGPLKGVYVRSHAVKLPGSIAERQARSAASLVRERLGVDPIVEIEAYKPHRDPHLGPGTGVLVWAVFGETVMGGDSIGKKGKPAEVVGREAAESLLEDMATGAALDRHMSDMAPVYLALAGGVSTVFGARLTGHASTILELLRIMVDGFEYRILEGGLERPFKAELRGAGVSPR
